Patent US20260242478A1 (published 2026)
Where no end group is shown, it is not given here.

Legend:
PSMA Fab [1] = molecular target: T1, PSMA Fab; assay: clonal phage ELISA; biotinylated PSMA Fab on neutravidin plate, blocking buffer alone; anti-M13 HRP detection;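 further: crude clonal phage supernatants added without washing to wells pretreated with blocking buffer with or without PSMA antigen, short incubation, then washed before detecting bound phage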
T1 construct: also called Anti-PSMA Fab; 006 PSMA Fab
Method: (§1) Clonal phage were harvested as crude supernatants and screened via standard ELISAs. […] Prior to the addition of clonal phage. wells were incubated with blocking buffer and PSMA antigen or blocking buffer alone. Without washing or aspirating, clonal phage supernatants were then added to the wells and incubated for a short time. Wells were then washed followed by detection of bound phage using a horse radish conjugated anti-M13 antibody.

PSMA Fab [2] = molecular target: T1, PSMA Fab; assay: clonal phage ELISA; biotinylated PSMA Fab on neutravidin plate, wells pre-incubated with PSMA antigen as competitor; anti-M13 HRP detection;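 further: crude clonal phage supernatants added to antigen-treated wells without a wash, incubated briefly, then bound phage read out via horse radish–conjugated anti-M13 antibody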
Method: as §1

PSMA Fab (006 PSMA Fab) [3] = molecular target: T2, PSMA Fab (006 PSMA Fab) (biotinylated (site not stated)); assay: clonal phage ELISA on biotinylated PSMA Fab captured on neutravidin plate, blocking buffer alone; anti-M13 HRP detection
T2 construct: also called Anti-PSMA Fab; anti-PSMA Fab

PSMA Fab (006 PSMA Fab) [4] = molecular target: T3, PSMA Fab (006 PSMA Fab); assay: phage ELISA; biotinylated PSMA Fab on neutravidin plate, clonal phage supernatant, anti-M13 HRP detection;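 further: wells preincubated with PSMA antigen in blocking buffer or with blocking buffer only before clonal phage were added for a short incubation, then bound phage detected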
T3 construct: also called Anti-PSMA Fab; anti-PSMA Fab
Method: as §1

PSMA Fab (006 PSMA Fab) [5] = molecular target: T3, PSMA Fab (006 PSMA Fab); assay: phage ELISA; biotinylated PSMA Fab on neutravidin plate pre-incubated with PSMA antigen as competitor, anti-M13 HRP detection;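 further: crude clonal phage supernatants tested, compared against control wells pre-incubated with blocking buffer only, without PSMA antigen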
Method: as §1

Anti-PSMA Fab [6] = molecular target: T4, Anti-PSMA Fab; assay: clonal phage ELISA on biotinylated PSMA Fab captured on neutravidin plates, anti-M13-HRP detection;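 further: crude clonal phage supernatants added to wells preincubated with PSMA antigen or with blocking buffer only (no wash between), briefly incubated, then washed before detecting bound phage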
T4 construct: also called 006 PSMA Fab
Method: as §1

Anti-PSMA Fab [7] = molecular target: T4, Anti-PSMA Fab; assay: clonal phage ELISA on captured PSMA Fab, wells pre-incubated with PSMA antigen as competitor, anti-M13-HRP detection;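 further: crude clonal phage supernatants added without washing after the PSMA preincubation, comparison wells received blocking buffer alone without PSMA, bound phage read after washing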
Method: as §1

FELYCVPAWMCSGF [Phage-3753]
Phage binding ELISA signal, Anti-PSMA Fab (PSMA Fab [1]): 1.37
Phage binding ELISA signal, Anti-PSMA Fab with PSMA antigen (PSMA Fab [2]): 0.16

ETPRCVPWWMCIDI [Phage-3751]
Phage binding ELISA signal, Anti-PSMA Fab (PSMA Fab [1]): 1.37
Phage binding ELISA signal, Anti-PSMA Fab with PSMA antigen (PSMA Fab [2]): 0.0731

B1: Phage-3770 (peptide, not shown: large carriers)
peptide: TTPMCVPAWMCSGM
notes: Clonal phage of the peptide-180 library, tested as crude phage supernatant
Phage binding ELISA signal, Anti-PSMA Fab (PSMA Fab (006 PSMA Fab) [3]): 1.34

B2: Phage-3763 (peptide, not shown: large carriers)
peptide: DQRECIPHWMCAGF
modifications: cysteine pairing not given here; also: displayed on phage as pIII fusion
notes: as for B1
Phage binding ELISA signal, Anti-PSMA Fab (PSMA Fab (006 PSMA Fab) [3]): 1.36

GLRMCEPMWMCQGF (cysteine pairing not given here; also: displayed on phage as pIII fusion) [Phage-3772]
Phage binding ELISA signal, Anti-PSMA Fab (PSMA Fab (006 PSMA Fab) [4]): 1.34
Phage binding ELISA signal, Anti-PSMA Fab in presence of PSMA (PSMA Fab (006 PSMA Fab) [5]): 0.0749

B3: Phage-3766 (peptide, not shown: large carriers)
peptide: LYGVCVPEWMCHGF
notes: as for B1
Phage binding ELISA signal, Anti-PSMA Fab (PSMA Fab (006 PSMA Fab) [3]): 1.35

VTTLCRPAWMCHGF [Phage-3778]
Phage binding ELISA signal, Anti-PSMA Fab (PSMA Fab (006 PSMA Fab) [4]): 1.33
Phage binding ELISA signal, Anti-PSMA Fab in presence of PSMA (PSMA Fab (006 PSMA Fab) [5]): 0.0881

PGASCVPAWMCDGF [Phage-3784]
Phage binding ELISA signal, Anti-PSMA Fab (PSMA Fab (006 PSMA Fab) [4]): 1.33
Phage binding ELISA signal, Anti-PSMA Fab in presence of PSMA (PSMA Fab (006 PSMA Fab) [5]): 0.0653

B4: Phage-3791 (peptide)
peptide: VHMACTPWWMCVGF
notes: Clone of the Peptide-180 optimisation library, tested as clonal phage supernatant
Phage binding ELISA signal, Anti-PSMA Fab (Anti-PSMA Fab [6]): 1.32
Phage binding ELISA signal, Anti-PSMA Fab with PSMA antigen (Anti-PSMA Fab [7]): 0.0962

B5: Phage-3758 (peptide, not shown: large carriers)
peptide: YETVCKPLWMCTGF
modifications: cysteine pairing not given here; also: displayed on phage as pIII fusion
notes: as for B1
Phage binding ELISA signal, Anti-PSMA Fab (PSMA Fab (006 PSMA Fab) [3]): 1.36

EEMMCKPDWMCYGF [Phage-3755]
Phage binding ELISA signal, Anti-PSMA Fab (PSMA Fab [1]): 1.37
Phage binding ELISA signal, Anti-PSMA Fab with PSMA antigen (PSMA Fab [2]): 0.109

B6: Phage-3767 (peptide, not shown: large carriers)
peptide: VVRVCEPSWMCAGF
modifications: cysteine pairing not given here; also: displayed on phage as pIII fusion
notes: as for B1
Phage binding ELISA signal, Anti-PSMA Fab (PSMA Fab (006 PSMA Fab) [3]): 1.35

YHKECIPPWMCMGF [Phage-3756]
Phage binding ELISA signal, Anti-PSMA Fab (PSMA Fab [1]): 1.37
Phage binding ELISA signal, Anti-PSMA Fab with PSMA antigen (PSMA Fab [2]): 0.0922

PVQLCIPSWMCDGF [Phage-3776]
Phage binding ELISA signal, Anti-PSMA Fab (PSMA Fab (006 PSMA Fab) [4]): 1.33
Phage binding ELISA signal, Anti-PSMA Fab in presence of PSMA (PSMA Fab (006 PSMA Fab) [5]): 0.0876

EAKVCKPAWMCDGL [Phage-3754]
Phage binding ELISA signal, Anti-PSMA Fab (PSMA Fab [1]): 1.37
Phage binding ELISA signal, Anti-PSMA Fab with PSMA antigen (PSMA Fab [2]): 0.077

B7: Phage-3790 (peptide)
peptide: VSQLCIPEWMCIGI
notes: as for B4
Phage binding ELISA signal, Anti-PSMA Fab (Anti-PSMA Fab [6]): 1.32
Phage binding ELISA signal, Anti-PSMA Fab with PSMA antigen (Anti-PSMA Fab [7]): 0.08

YSNFCVPHWMCSGF [Phage-3782]
Phage binding ELISA signal, Anti-PSMA Fab (PSMA Fab (006 PSMA Fab) [4]): 1.33
Phage binding ELISA signal, Anti-PSMA Fab in presence of PSMA (PSMA Fab (006 PSMA Fab) [5]): 0.0679

B8: Phage-3769 (peptide, not shown: large carriers)
peptide: GSPFCVPLWMCEGF
notes: as for B1
Phage binding ELISA signal, Anti-PSMA Fab (PSMA Fab (006 PSMA Fab) [3]): 1.35

B9: Phage-3771 (peptide, not shown: large carriers)
peptide: GNIWCEPAWMCVGF
notes: as for B1
Phage binding ELISA signal, Anti-PSMA Fab (PSMA Fab (006 PSMA Fab) [3]): 1.34

B10: Phage-3780 (peptide)
peptide: HMPLCIPVWMCAGF
modifications: not fully specified (residue 3); cysteine pairing not given here; also: displayed on phage as fusion to pIII, junction not given here
Phage binding ELISA signal, Anti-PSMA Fab (PSMA Fab (006 PSMA Fab) [4]): 1.33
Phage binding ELISA signal, Anti-PSMA Fab in presence of PSMA (PSMA Fab (006 PSMA Fab) [5]): 0.113

B11: Phage-3768 (peptide, not shown: large carriers)
peptide: SEPVCTPMWMCTGI
notes: as for B1
Phage binding ELISA signal, Anti-PSMA Fab (PSMA Fab (006 PSMA Fab) [3]): 1.35

B12: Phage-3786 (peptide)
peptide: EMIRCEPRWMCSGF
modifications: cysteine pairing not given here; also: displayed on phage as fusion to pIII, junction not given here
notes: as for B4
Phage binding ELISA signal, Anti-PSMA Fab (Anti-PSMA Fab [6]): 1.32
Phage binding ELISA signal, Anti-PSMA Fab with PSMA antigen (Anti-PSMA Fab [7]): 0.0656
